According to patent US20090208440:

T1: substrate B
T1 chain: KKWLGRVPGGPV

T2: substrate A
T2 chain: LLWLGRVVGGPV


What was measured:
[1] = biological target: peptide with the desired target sequence of TNF-alpha
substrate B = biological target: T1, substrate B
substrate A = biological target: T2, substrate A
[2] = biological target: proteins from human blood serum

Sequence of human TNF-alpha (chain, as listed by the source): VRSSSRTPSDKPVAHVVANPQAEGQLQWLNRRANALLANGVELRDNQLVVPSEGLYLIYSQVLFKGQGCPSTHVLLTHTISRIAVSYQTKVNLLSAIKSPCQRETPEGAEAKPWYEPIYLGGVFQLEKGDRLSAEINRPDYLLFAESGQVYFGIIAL

Row | Protein | k with comp./k without comp. [1] | rate constants of proteolytic digestion (proportional to kcat/KM), relative to human trypsin I (substrate B) | also measured
1 | variant f (protein) IVGGYNCEENSVPYQVSLNSGYHFCGGSLINEQWVVSAGHCYAAFNGDKSRIQVRLGEHNIEVLEGNEQFINAAKIIRHPQYDRKTLNNDIMLIKLSSRAVINARVSTISLPTAPPATGTKCLISGWGNRKDFWTASSGADYPDELQCLDAPVLSQAKCEASYPGKITSNMFCVGFLEGGKDSCQGDSGGPVVCNGQLQGVVSWGDGCAQKNKPGVYTKVYNYVKWIKNTIAANS | 0.487 |  | 
2 | Variant 2 (protein) IVGGYNCEENSVPYQVSLNSGYHFCGGSLINEQWVVSAGHCYNGRDLEKSRIQVRLGEHNIEVLEGNEQFINAAKIIRHPQYDRKTLNNDIMLIKLSSRAVINARVSTISLPTAPPATGTKCLISGWGNVRGTWTASSGADYPDELQCLDAPVLSQAKCEASYPGKITSNMFCVGFLEGGKDSCQGDSGGPVVCNGQLQGVVSWGDGCAQKNKPGVYTKVYNYVKWIKNTIAANS |  | the specific activity of variants 1 and 2 is shifted (SEQ ID NOs: 2 and 3, respectively) towards substrate B | 
3 | Variant 3 (protein) IVGGYNCEENSVPYQVSLNSGYHFCGGSLINEQWVVSAGHCYAATNGDKSRIQVRLGEHNIEVLEGNEQFINAAKIIRHPQYDRKTLNNDIMLIKLSSRAVINARVSTISLPTAPPATGTKCLISGWGNRKDFWTASSGADYPDELQCLDAPVLSQAKCEASYPGKITSNMFCVGFLEGGKDSCQGDSGGPVVCNGQLQGVVSWGDGCAQKNKPGVYTKVYNYVKWIKNTIAANS |  | serves as a negative control with similar activities as the human trypsin I | rate constants of proteolytic digestion (proportional to kcat/KM), relative to human trypsin I (substrate A): serves as a negative control with similar activities as the human trypsin I
4 | variant e (protein) IVGGYNCEENSVPYQVSLNSGYHFCGGSLINEQWVVSAGHCYVNIMAAKSRIQVRLGEHNIEVLEGNEQFINAAKIIRHPQYDRKTLNNDIMLIKLSSRAVINARVSTISLPTAPPATGTKCLISGWGNTTARKTASSGADYPDELQCLDAPVLSQAKCEASYPGKITSNMFCVGFLEGGKDSCQGDSGGPVVCNGQLQGVVSWGDGCAQKNKPGVYTKVYNYVKWIKNTIAANS | 0.374 |  | 
5 | variant d (protein) IVGGYNCEENSVPYQVSLNSGYHFCGGSLINEQWVVSAGHCYKAVVGTKSRIQVRLGEHNIEVLEGNEQFINAAKIIRHPQYDRKTLNNDIMLIKLSSRAVINARVSTISLPTAPPATGTKCLISGWGNRTPISTASSGADYPDELQCLDAPVLSQAKCEASYPGKITSNMFCVGFLEGGKDSCQGDSGGPVVCNGQLQGVVSWGDGCAQKNKPGVYTKVYNYVKWIKNTIAANS | 0.31 |  | 
6 | Variant 1 (protein) IVGGYNCEENSVPYQVSLNSGYHFCGGSLINEQWVVSAGHCYDAVGRDKSRIQVRLGEHNIEVLEGNEQFINAAKIIRHPQYDRKTLNNDIMLIKLSSRAVINARVSTISLPTAPPATGTKCLISGWGNTITNSTASSGADYPDELQCLDAPVLSQAKCEASYPGKITSNMFCVGFLEGGKDSCQGDSGGPVVCNGQLQGVVSWGDGCAQKNKPGVYTKVYNYVKWIKNTIAANS |  | the specific activity of variants 1 and 2 is shifted (SEQ ID NOs: 2 and 3, respectively) towards substrate B | 
7 | variant c (protein) IVGGYNCEENSVPYQVSLNSGYHFCGGSLINEQWVVSAGHCYEIANREKSRIQVRLGEHNIEVLEGNEQFINAAKIIRHPQYDRKTLNNDIMLIKLSSRAVINARVSTISLPTAPPATGTKCLISGWGNRGARTTASSGADYPDELQCLDAPVLSQAKCEASYPGKITSNMFCVGFLEGGKDSCQGDSGGPVVCNGQLQGVVSWGDGCAQKNKPGVYTKVYNYVKWIKNTIAANS | 0.235 |  | 
8 | variant b (protein) IVGGYNCEENSVPYQVSLNSGYHFCGGSLINEQWVVSAGHCYGFVMFNKSRIQVRLGEHNIEVLEGNEQFINAAKIIRHPQYDRKTLNNDIMLIKLSSRAVINARVSTISLPTAPPATGTKCLISGWGNRSPLTTASSGADYPDELQCLDAPVLSQAKCEASYPGKITSNMFCVGFLEGGKDSCQGDSGGPVVCNGQLQGVVSWGDGCAQKNKPGVYTKVYNYVKWIKNTIAANS | 0.187 |  | 
9 | variant x (protein) IVGGYNCEENSVPYQVSLNSGYHFCGGSLINEQWVVSAGHCYAAFNGKSRIQVRLGEHNIGVLEGNEQFINAAKIIRHPQYDWKTLNNDIMLIKLSSRAVINARVSTISLPTAPPATGTKCLISGWGNRKDFWTASSGADFPDELQCLDAPVLSQTKCEASYPGKITSNMFCVGFLEGGKDSCQGDSGGPVVRNGQLQGVVSWGDGCAQKNKPGVYTKVYNYVKWIKNTIAANS |  |  | remaining intact protein as a function of time (proteolytic digestion) (human TNF-alpha): the variants as well as human trypsin I digest human TNF-alpha; remaining intact protein as a function of time (proteolytic digestion) [2]: only trypsin shows activity on serum protein
10 | variant a (protein) IVGGYNCEENSVPYQVSLNSGYHFCGGSLINEQWVVSAGHCYRPWDPSKSRIQVRLGEHNIEVLEGNEQFINAAKIIRHPQYDRKTLNNDIMLIKLSSRAVINARVSTISLPTAPPATGTKCLISGWGNVHPTSTASSGADYPDELQCLDAPVLSQAKCEASYPGKITSNMFCVGFLEGGKDSCQGDSGGPVVCNGQLQGVVSWGDGCAQKNKPGVYTKVYNYVKWIKNTIAANS | 0.13 |  | 
